What was measured:
A*02:07 [1] = test: SPR; head prints KD(1/s)
A*02:02 [2] = test: SPR; head prints KD(1/s)
A*02:05 [3] = test: SPR; head prints KD(1/s)
A*02:03 [4] = test: SPR; head prints KD(1/s)
A*02:06 [5] = test: SPR; head prints KD(1/s)
A*02:11 [6] = test: SPR; head prints KD(1/s)
A*02:06 [7] = test: SPR
A*02:11 [8] = test: SPR
A*02:07 [9] = test: SPR; low fitting confidence
A*02:02 [10] = test: SPR; low fitting confidence
A*02:05 [11] = test: SPR; low fitting confidence
A*02:03 [12] = test: SPR; low fitting confidence
AFP158 loaded T2 cells = AFP158 loaded T2 cells (human;, UniProt P61769 21-119); test: flow cytometry
[13] = target: AFP158/HLA-A*02:01 complex; test: SPR; head prints KD(1/s)
A*02:05 [14] = test: SPR
A*02:11 [15] = test: SPR; low fitting confidence
[16] = target: AFP158/HLA-A*02:01 complex; test: SPR

B1: AS190259 VL1VH1 (Fc fusion)
chain: SSELTQDPAVSVALGQTVRITCQGGGYYVNWYQQKPGQAPVLVIYLNTNRPSGIPDRFSGSSSGNTASLTITGAQAEDEADYYCQSADSSGNSAVFGGGTKLTVLGGGGSGGGGSGGGGSEVQLVESGGGLVQPGGSLRLSCAASGFTFSSYAMSWVRQAPGKGLEWVSAINSGGGSTYYADSVKGRFTISRDNSKNTLYLQMNSLRAEDTAVYYCAKAASGYGGSWWGDATLDAWGQGTLVTVSS
Kd (A*02:07 [1]): 3500 nM
Kd (A*02:02 [2]): 970 nM
Kd (A*02:05 [3]): 7000 nM
Kd (A*02:03 [4]): 48000 nM
Kd (A*02:06 [5]): 800 nM
Kd (A*02:11 [6]): 6700 nM

B2: AS179723 VL1g1VH1g1-N73Y (Fc fusion)
chain: QSVLTQPPSASGTPGQRVTISCSGSSNNIGGNYVNWYQQLPGTAPKLLIYDNKNRPSGVPDRFSGSKSGTSASLAISGLQSEDEADYYCASWDDSLSAVVFGGGTKLTVLGGGGSGGGGSGGGGSEVQLVESGGGLVQPGGSLRLSCAASGFTFLNYAMSWVRQAPGKGLEWVSSNSGAGSTYYADSVKGRFTISRDYSKNTLYLQMNSLRAEDTAVYYCAKGTNVGSWSSLHYWGQGTLVTVSS
Kd (A*02:06 [7]): 220 nM
Kd (A*02:11 [8]): 700 nM
Kd (A*02:07 [9]): > 1700 nM
Kd (A*02:02 [10]): > 77000 nM
Kd (A*02:05 [11]): > 17000 nM
Kd (A*02:03 [12]): > 6100 nM

B3: AS190259 VL1VH1 scFv-mIgG2aFc (Fc fusion)
chain: SSELTQDPAVSVALGQTVRITCQGGGYYVNWYQQKPGQAPVLVIYLNTNRPSGIPDRFSGSSSGNTASLTITGAQAEDEADYYCQSADSSGNSAVFGGGTKLTVLGGGGSGGGGSGGGGSEVQLVESGGGLVQPGGSLRLSCAASGFTFSSYAMSWVRQAPGKGLEWVSAINSGGGSTYYADSVKGRFTISRDNSKNTLYLQMNSLRAEDTAVYYCAKAASGYGGSWWGDATLDAWGQGTLVTVSS
EC50 (AFP158 loaded T2 cells): 3.56 nM
Kd [13]: 130 nM

B4: AS179732 VL1g1VH1g1-N73Y (Fc fusion)
chain: QSVLTQPPSASGTPGQRVTISCSGSSSNIGGNYVNWYQQLPGTAPKLLIYDNSNRASGVPDRFSGSKSGTSASLAISGLQSEDEADYYCASWDDSLSGAVFGGGTKLTVLGGGGSGGGGSGGGGSEVQLVESGGGLVQPGGSLRLSCAASGFTFLNYAMSWVRQAPGKGLEWVSSNSGAGSTYYADSVKGRFTISRDYSKNTLYLQMNSLRAEDTAVYYCAKGTNVGSWSSLHYWGQGTLVTVSS
Kd (A*02:05 [14]): 17000 nM
Kd (A*02:06 [7]): 220 nM
Kd (A*02:07 [9]): > 2400 nM
Kd (A*02:02 [10]): > 29000 nM
Kd (A*02:03 [12]): > 11000 nM
Kd (A*02:11 [15]): > 1000 nM

B5: AS190259 (Fc fusion)
chain: QSVVTQPSAVSVSLEETATITCQGGGYYVNWYQQKPGQAPVLVIYLNTNRPSGIPERFSASKSGGTATLTINGAQAEDEAAYYCQSADSSGNSAVFGGGTHLTVLGGGGSGGGGSGGGGSQVQLVQSGGGLVQPGGSLRLSCAASGFTFSSYAMSWVRQAPGKGLEWVSAINSGGGSTYYADSVKGRFTISRDNAKNTLYLQLNSLKTEDTAMYYCAKAASGYGGSWWGDATLDAWGQGTLVTVSS
Kd (A*02:07 [1]): 2500 nM
Kd (A*02:02 [2]): 660 nM
Kd (A*02:05 [3]): 3800 nM
Kd (A*02:03 [4]): 35000 nM
Kd (A*02:06 [5]): 520 nM
Kd (A*02:11 [6]): 4500 nM

B6: AS170036 VL1VH1 scFv-mIgG2aFc (Fc fusion)
chain: QSALTQPRSVSGSPGQSVTISCAGTSSDVGSENYVSWYQQHPGKAPKLMIYQVNKRASGVPDRFSGSKSGNTASLTISGLQAEDEADYYCASYRSSDHNIVFGGGTKLTVLGGGGSGGGGSGGGGSEVQLVESGGGLVQPGGSLRLSCAASGFTFSSYAMSWVRQAPGKGLEWVSTINSGTGSPYYADSVKGRFTISRDNSKNTLYLQMNSLRAEDTAVYYCAKNFFDGSWFLGPPAMDYWGQGTLVTVSS
EC50 (AFP158 loaded T2 cells): 8.79 nM
Kd [16]: 256 nM
